Data on 13 molecules can be found in US20220088148A1 (HANMI PHARM, published 2022).

Bridges are numbered along the chain shown (N, C = ends). Where no end group is shown, it is not given here. [ ]: non-standard residue; d: D form. The star is where a group is joined. Acetyl(2-(4-imidazolyl)) = O=C(Cc1c[nH]cn1)*; Aib = CC(C)(N)C(=O)O

Sequence of human GCG receptor (P47871 26-477): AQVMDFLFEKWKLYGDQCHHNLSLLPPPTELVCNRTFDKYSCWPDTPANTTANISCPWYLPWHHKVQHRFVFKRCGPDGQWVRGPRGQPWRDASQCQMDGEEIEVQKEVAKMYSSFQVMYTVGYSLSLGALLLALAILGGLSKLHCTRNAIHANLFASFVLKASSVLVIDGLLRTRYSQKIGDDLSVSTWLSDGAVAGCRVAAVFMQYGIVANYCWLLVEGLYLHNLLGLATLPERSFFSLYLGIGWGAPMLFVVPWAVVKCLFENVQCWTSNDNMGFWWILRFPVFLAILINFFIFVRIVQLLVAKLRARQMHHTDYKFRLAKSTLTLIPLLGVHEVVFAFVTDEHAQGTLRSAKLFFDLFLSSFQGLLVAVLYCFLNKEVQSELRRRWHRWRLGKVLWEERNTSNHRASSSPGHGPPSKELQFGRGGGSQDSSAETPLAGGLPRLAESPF

The target of one test is human GLP-1 receptor (human, UniProt P43220 24-463). The test is described as follows: cell-based or functional assay.
As to {Acetyl(2-(4-imidazolyl))}-[Aib]QGTFTSDYSKYLDEKRQKEFVQWLLDTC (bridge 15-19) [triple agonist of SEQ ID NO: 82], the “In vitro activity (%) vs. GLP-1, cAMP EC50” value came to 9.5%.

Consider {Acetyl(2-(4-imidazolyl))}-[Aib]QGTFTSDYSKCLDEKRAKEFVQWLLDHHPSSGQPPPS (bridge 15-19) [triple agonist of SEQ ID NO: 74], for which the “In vitro activity (%) vs. GLP-1, cAMP EC50” value worked out at 12.9%.

Consider Y[Aib]QGTFTSDYSKYLDEKRAKDFVQWLLDHHPSSGQPPPSC (bridge 16-20) [triple agonist of SEQ ID NO: 76], for which the “In vitro activity (%) vs. GLP-1, cAMP EC50” value turned out to be 10.3%.

On to [Acetyl(2-(4-imidazolyl))][Aib]QGTFTSDYSIAMDEIACKDFVNWLLNTK (bridge 16-20; ends not checked) [triple agonist of SEQ ID NO: 61], for which the “In vitro activity (%) vs. GLP-1, cAMP EC50” value was 59.8%.

H[Aib]QGTFTSDYSKYLDEKRQKEFVQWLLDTKC (bridge 16-20) [triple agonist of SEQ ID NO: 78]: the “In vitro activity (%) vs. GLP-1, cAMP EC50” value stood at 51%.

For the molecule Y[Aib]QGTFTSDCSKYLDERAAKDFVQWLLDHHPSSGQPPPS (bridge 16-20; ends not checked) [triple agonist of SEQ ID NO: 72], the “In vitro activity (%) vs. GLP-1, cAMP EC50” value is 11.5%.

As for Y[Aib]QGTFTSDYSKCLDEKRAKDFVQWLLDHHPSSGQPPPS (bridge 16-20; ends not checked) [triple agonist of SEQ ID NO: 70], the “In vitro activity (%) vs. GLP-1, cAMP EC50” value was determined as 15.1%.

Take Y[Aib]QGTFTSDYSKYLDECRAKDFVQWLLDHHPSSGQPPPS (bridge 16-20; ends not checked) [triple agonist of SEQ ID NO: 66]: the “In vitro activity (%) vs. GLP-1, cAMP EC50” value was 15.8%.

For the molecule [Acetyl(2-(4-imidazolyl))][Aib]QGTFTSDYSICMDEKHQKDFVNWLLNTK (bridge 16-20; ends not checked) [triple agonist of SEQ ID NO: 59], the “In vitro activity (%) vs. GLP-1, cAMP EC50” value came to 40.3%.

On to H[Aib]EGTFTSDYSIAMDEIHQKDFVNWLLAQKC (bridge 16-20) [triple agonist of SEQ ID NO: 79], for which the “In vitro activity (%) vs. GLP-1, cAMP EC50” value was 41.5%.

For the molecule {Acetyl(2-(4-imidazolyl))}-[Aib]QGTFTSDYSKYLDEKRQKEFVQWLLNTC (bridge 15-19) [triple agonist of SEQ ID NO: 81], the “In vitro activity (%) vs. GLP-1, cAMP EC50” value worked out at 7.8%.

As for Y[Aib]QGTFTSDYSKYLDEKAAKEFVQWLLDHHPSSGQPPPSC (bridge 16-20) [triple agonist of SEQ ID NO: 75], the “In vitro activity (%) vs. GLP-1, cAMP EC50” value stood at 35.1%.

In the case of {Acetyl(2-(4-imidazolyl))}-[Aib]EGTFTSDYSIAMDEIHQKDFVDWLLAEC (bridge 15-19) [triple agonist of SEQ ID NO: 84], the “In vitro activity (%) vs. GLP-1, cAMP EC50” value was 4.2%.

Another test concerns the target human GCG receptor (human, UniProt P47871 26-477). Nature of the test: cell-based or functional assay.
Take {Acetyl(2-(4-imidazolyl))}-[Aib]QGTFTSDYSKYLDEKRQKEFVQWLLDTC (bridge 15-19) [triple agonist of SEQ ID NO: 82]: the “In vitro activity (%) vs. Glucagon, cAMP EC50” value turned out to be 1.1%.

Regarding {Acetyl(2-(4-imidazolyl))}-[Aib]QGTFTSDYSKCLDEKRAKEFVQWLLDHHPSSGQPPPS (bridge 15-19) [triple agonist of SEQ ID NO: 74], the “In vitro activity (%) vs. Glucagon, cAMP EC50” value is 0.9%.

For the molecule Y[Aib]QGTFTSDYSKYLDEKRAKDFVQWLLDHHPSSGQPPPSC (bridge 16-20) [triple agonist of SEQ ID NO: 76], the “In vitro activity (%) vs. Glucagon, cAMP EC50” value was 47.6%.

As to [Acetyl(2-(4-imidazolyl))][Aib]QGTFTSDYSIAMDEIACKDFVNWLLNTK (bridge 16-20; ends not checked) [triple agonist of SEQ ID NO: 61], the “In vitro activity (%) vs. Glucagon, cAMP EC50” value is < 0.1%.

Take H[Aib]QGTFTSDYSKYLDEKRQKEFVQWLLDTKC (bridge 16-20) [triple agonist of SEQ ID NO: 78]: the “In vitro activity (%) vs. Glucagon, cAMP EC50” value was 14%.

Take Y[Aib]QGTFTSDCSKYLDERAAKDFVQWLLDHHPSSGQPPPS (bridge 16-20; ends not checked) [triple agonist of SEQ ID NO: 72]: the “In vitro activity (%) vs. Glucagon, cAMP EC50” value came to 1%.

For the molecule Y[Aib]QGTFTSDYSKCLDEKRAKDFVQWLLDHHPSSGQPPPS (bridge 16-20; ends not checked) [triple agonist of SEQ ID NO: 70], the “In vitro activity (%) vs. Glucagon, cAMP EC50” value came to 71.3%.

On to Y[Aib]QGTFTSDYSKYLDECRAKDFVQWLLDHHPSSGQPPPS (bridge 16-20; ends not checked) [triple agonist of SEQ ID NO: 66], for which the “In vitro activity (%) vs. Glucagon, cAMP EC50” value was 172%.

[Acetyl(2-(4-imidazolyl))][Aib]QGTFTSDYSICMDEKHQKDFVNWLLNTK (bridge 16-20; ends not checked) [triple agonist of SEQ ID NO: 59]: the “In vitro activity (%) vs. Glucagon, cAMP EC50” value is < 0.1%.

Turning to H[Aib]EGTFTSDYSIAMDEIHQKDFVNWLLAQKC (bridge 16-20) [triple agonist of SEQ ID NO: 79], the “In vitro activity (%) vs. Glucagon, cAMP EC50” value came out at 4.9%.

As to {Acetyl(2-(4-imidazolyl))}-[Aib]QGTFTSDYSKYLDEKRQKEFVQWLLNTC (bridge 15-19) [triple agonist of SEQ ID NO: 81], the “In vitro activity (%) vs. Glucagon, cAMP EC50” value was 0.3%.

For the molecule Y[Aib]QGTFTSDYSKYLDEKAAKEFVQWLLDHHPSSGQPPPSC (bridge 16-20) [triple agonist of SEQ ID NO: 75], the “In vitro activity (%) vs. Glucagon, cAMP EC50” value worked out at 8.5%.

As to {Acetyl(2-(4-imidazolyl))}-[Aib]EGTFTSDYSIAMDEIHQKDFVDWLLAEC (bridge 15-19) [triple agonist of SEQ ID NO: 84], the “In vitro activity (%) vs. Glucagon, cAMP EC50” value was < 0.1%.

The target in the next test is T1, human GIP receptor (human, UniProt P48546 22-466).
T1 sequence (looked up): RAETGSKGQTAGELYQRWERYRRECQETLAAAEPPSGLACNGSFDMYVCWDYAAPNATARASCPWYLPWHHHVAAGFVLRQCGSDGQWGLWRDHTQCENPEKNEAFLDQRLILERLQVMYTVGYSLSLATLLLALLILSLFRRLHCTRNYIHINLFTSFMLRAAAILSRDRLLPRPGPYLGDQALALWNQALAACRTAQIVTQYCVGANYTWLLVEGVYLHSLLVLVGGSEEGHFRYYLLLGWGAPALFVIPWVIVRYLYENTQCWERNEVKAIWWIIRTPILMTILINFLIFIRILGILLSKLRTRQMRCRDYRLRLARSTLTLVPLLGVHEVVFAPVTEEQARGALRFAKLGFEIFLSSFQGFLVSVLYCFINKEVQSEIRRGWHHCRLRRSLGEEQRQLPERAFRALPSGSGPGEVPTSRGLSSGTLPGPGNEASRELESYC
The test is described as follows: cell-based or functional assay.
Consider {Acetyl(2-(4-imidazolyl))}-[Aib]QGTFTSDYSKYLDEKRQKEFVQWLLDTC (bridge 15-19) [triple agonist of SEQ ID NO: 82], for which the “In vitro activity (%) vs. GIP, cAMP EC50” value is < 0.1%.

Turning to {Acetyl(2-(4-imidazolyl))}-[Aib]QGTFTSDYSKCLDEKRAKEFVQWLLDHHPSSGQPPPS (bridge 15-19) [triple agonist of SEQ ID NO: 74], the “In vitro activity (%) vs. GIP, cAMP EC50” value was determined as 1%.

Regarding Y[Aib]QGTFTSDYSKYLDEKRAKDFVQWLLDHHPSSGQPPPSC (bridge 16-20) [triple agonist of SEQ ID NO: 76], the “In vitro activity (%) vs. GIP, cAMP EC50” value was 11.7%.

As to [Acetyl(2-(4-imidazolyl))][Aib]QGTFTSDYSIAMDEIACKDFVNWLLNTK (bridge 16-20; ends not checked) [triple agonist of SEQ ID NO: 61], the “In vitro activity (%) vs. GIP, cAMP EC50” value worked out at 2.8%.

On to H[Aib]QGTFTSDYSKYLDEKRQKEFVQWLLDTKC (bridge 16-20) [triple agonist of SEQ ID NO: 78], for which the “In vitro activity (%) vs. GIP, cAMP EC50” value stood at 0.12%.

Regarding Y[Aib]QGTFTSDCSKYLDERAAKDFVQWLLDHHPSSGQPPPS (bridge 16-20; ends not checked) [triple agonist of SEQ ID NO: 72], the “In vitro activity (%) vs. GIP, cAMP EC50” value was 1.6%.

Consider Y[Aib]QGTFTSDYSKCLDEKRAKDFVQWLLDHHPSSGQPPPS (bridge 16-20; ends not checked) [triple agonist of SEQ ID NO: 70], for which the “In vitro activity (%) vs. GIP, cAMP EC50” value amounted to 64.4%.

Turning to Y[Aib]QGTFTSDYSKYLDECRAKDFVQWLLDHHPSSGQPPPS (bridge 16-20; ends not checked) [triple agonist of SEQ ID NO: 66], the “In vitro activity (%) vs. GIP, cAMP EC50” value was 17.2%.

With [Acetyl(2-(4-imidazolyl))][Aib]QGTFTSDYSICMDEKHQKDFVNWLLNTK (bridge 16-20; ends not checked) [triple agonist of SEQ ID NO: 59], the “In vitro activity (%) vs. GIP, cAMP EC50” value came out at 4%.

As to H[Aib]EGTFTSDYSIAMDEIHQKDFVNWLLAQKC (bridge 16-20) [triple agonist of SEQ ID NO: 79], the “In vitro activity (%) vs. GIP, cAMP EC50” value was 1.4%.

As to {Acetyl(2-(4-imidazolyl))}-[Aib]QGTFTSDYSKYLDEKRQKEFVQWLLNTC (bridge 15-19) [triple agonist of SEQ ID NO: 81], the “In vitro activity (%) vs. GIP, cAMP EC50” value was < 0.1%.

In the case of Y[Aib]QGTFTSDYSKYLDEKAAKEFVQWLLDHHPSSGQPPPSC (bridge 16-20) [triple agonist of SEQ ID NO: 75], the “In vitro activity (%) vs. GIP, cAMP EC50” value was 18%.

On to {Acetyl(2-(4-imidazolyl))}-[Aib]EGTFTSDYSIAMDEIHQKDFVDWLLAEC (bridge 15-19) [triple agonist of SEQ ID NO: 84], for which the “In vitro activity (%) vs. GIP, cAMP EC50” value is < 0.1%.
